Assay [1] deals with T1, human C1s (human, UniProt P09871 16-688).
T1 construct: Analyte in the Biacore assays; also called hC1s; serum-derived human C1s (CompTech)
T1 sequence: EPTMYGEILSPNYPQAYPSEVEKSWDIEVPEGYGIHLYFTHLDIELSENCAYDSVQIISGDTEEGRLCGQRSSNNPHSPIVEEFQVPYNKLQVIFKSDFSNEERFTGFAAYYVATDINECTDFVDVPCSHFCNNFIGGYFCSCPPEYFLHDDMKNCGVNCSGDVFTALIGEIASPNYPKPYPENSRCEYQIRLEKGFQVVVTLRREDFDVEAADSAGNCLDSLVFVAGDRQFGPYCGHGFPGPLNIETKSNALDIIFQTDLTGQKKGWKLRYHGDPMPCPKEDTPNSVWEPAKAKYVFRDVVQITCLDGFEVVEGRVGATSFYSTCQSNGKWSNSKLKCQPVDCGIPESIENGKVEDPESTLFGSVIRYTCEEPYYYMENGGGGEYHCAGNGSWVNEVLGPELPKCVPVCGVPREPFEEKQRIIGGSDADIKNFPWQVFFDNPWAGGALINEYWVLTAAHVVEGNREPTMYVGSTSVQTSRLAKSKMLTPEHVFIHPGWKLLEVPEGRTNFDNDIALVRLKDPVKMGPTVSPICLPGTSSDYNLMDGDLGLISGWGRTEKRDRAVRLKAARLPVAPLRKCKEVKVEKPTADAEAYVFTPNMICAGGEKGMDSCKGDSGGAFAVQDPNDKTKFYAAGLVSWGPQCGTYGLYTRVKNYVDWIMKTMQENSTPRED
Description: SPR; KD at pH 5.8 (3 uM Ca) over KD at pH 7.4 (1.2 mM Ca). The procedure: (§1) All variants were transiently expressed and purified by the method described above. The binding affinity of each histidine-substituted variant at pH 7.4 and pH 5.8 was determined at 37 degrees C. using Biacore T200 instrument (GE Healthcare). Recombinant Protein A/G (Pierce) was immobilized onto all flow cells of a CM4 sensor chip using an amine coupling kit (GE Healthcare). Antibodies and analytes were prepared in 7(+) buffer (20 mM ACES, 150 mM NaCl, 1.2 mM CaCl2, 0.05% Tween 20, 0.005% NaN3, pH 7.4), 5(+) buffer (20 mM ACES, 150 mM NaCl, 1.2 mM CaCl2, 0.05% Tween 20, 0.005% NaN3, pH 5.8), or 5(−) buffer (20 mM ACES, 150 mM NaCl, 3 micro M CaCl2, 0.05% Tween 20, 0.005% NaN3, pH 5.8). Each antibody was captured onto the sensor surface by protein A/G. Antibody capture levels were aimed at 200 resonance unit (RU). Serum-derived human C1s (CompTech) or recombinant C1s prepared in EXAMPLE 1 was injected at 50 nM, followed by dissociation. The sensor surface was regenerated in each cycle with 10 mM Glycine-HCl, pH 1.5. […] The ratio of KD 5.8+ to KD 7.4+(“KD 5+/7+”) and that of KD 5.8− to KD 7.4+(“KD 5−/7+”) were calculated. When the KD 5+/7+ or KD 5−/7+ of a variant is larger than that of the parent antibody IPN009VH2-SG4GK/IPN009VK3-SK1, that variant is considered to be “pH”- or “pH and Ca”-dependent, respectively. When binding response in 5(+) buffer and/or in 5(−) buffer of a variant is much lower than that of IPN09VH2/IPN009VK3, that variant is also considered as “pH”- and/or “pH and Ca”-dependent. Therefore, such mutations are effective to generate “pH”- and/or “pH and Ca”-dependent antibody. To further enhance “pH” and/or “pH and Ca” dependency, a combination of histidine mutations was conducted. Antibodies with combinations of histidine mutations were evaluated using Biacore by the method described above.
For orientation: In SPR one partner is held on a chip, and binding of the other changes the refractive index at the surface.

In assay [2] the target is T1, human C1s. Put plainly: SPR; KD at pH 5.8 (1.2 mM Ca) over KD at pH 7.4 (1.2 mM Ca). Here is the method: as §1
For assay [3], the target named is T1, human C1s. Description: SPR (Biacore T200, 37C), Ab captured on protein A/G; pH 5.8, 3 uM Ca. Here is the method:
as §1

The target in assay [4] is T1, human C1s. Put plainly: SPR (Biacore T200, 37C), Ab captured on protein A/G; pH 5.8, 1.2 mM Ca. Here is the method:
as §1

Assay [5] concerns the target T1, human C1s. Description: SPR (Biacore T200, 37C), Ab captured on protein A/G; pH 7.4, 1.2 mM Ca. The procedure: as §1
Assay [6] deals with T1, human C1s. Description: SPR (Biacore T200, 37C), Ab captured on protein A/G; pH 5.8, 1.2 mM Ca; pH 5.8, 1.2 mM Ca.
The target of assay [7] is T1, human C1s. Description: SPR (Biacore T200, 37C), Ab captured on protein A/G; pH 7.4, 1.2 mM Ca; pH 7.4, 1.2 mM Ca. Here is the method:
All variants were transiently expressed and purified by the method described above. The binding affinity of each histidine-substituted variant at pH 7.4 and pH 5.8 was determined at 37 degrees C. using Biacore T200 instrument (GE Healthcare). Recombinant Protein A/G (Pierce) was immobilized onto all flow cells of a CM4 sensor chip using an amine coupling kit (GE Healthcare). Antibodies and analytes were prepared in 7(+) buffer (20 mM ACES, 150 mM NaCl, 1.2 mM CaCl2, 0.05% Tween 20, 0.005% NaN3, pH 7.4), 5(+) buffer (20 mM ACES, 150 mM NaCl, 1.2 mM CaCl2, 0.05% Tween 20, 0.005% NaN3, pH 5.8), or 5(−) buffer (20 mM ACES, 150 mM NaCl, 3 micro M CaCl2, 0.05% Tween 20, 0.005% NaN3, pH 5.8). Each antibody was captured onto the sensor surface by protein A/G. Antibody capture levels were aimed at 200 resonance unit (RU). Serum-derived human C1s (CompTech) or recombinant C1s prepared in EXAMPLE 1 was injected at 50 nM, followed by dissociation. The sensor surface was regenerated in each cycle with 10 mM Glycine-HCl, pH 1.5. […] The ratio of KD 5.8+ to KD 7.4+(“KD 5+/7+”) and that of KD 5.8− to KD 7.4+(“KD 5−/7+”) were calculated. […] Antibodies with combinations of histidine mutations were evaluated using Biacore by the method described above.

The target of assay [8] is T1, human C1s. Description: SPR; KD at pH 5.8 over KD at pH 7.4, both 1.2 mM Ca. The procedure:
The binding affinity of all histidine-substituted variants at pH 7.4 and pH 5.8 were determined at 37 degrees C. using Biacore T200 instrument (GE Healthcare). Recombinant Protein A/G (Pierce) was immobilized onto all flow cells of a CM4 sensor chip using amine coupling kit (GE Healthcare). Antibodies and analytes were prepared in 7(+) buffer (20 mM ACES, 150 mM NaCl, 1.2 mM CaCl2, 0.05% Tween 20, 0.005% NaN3, pH 7.4) or 5(+) buffer (20 mM ACES, 150 mM NaCl, 1.2 mM CaCl2), 0.05% Tween 20, 0.005% NaN3, pH 5.8). Each antibody was captured onto the sensor surface by protein A/G. Antibody capture levels were aimed at 200 resonance unit (RU). […] Sensor surface was regenerated each cycle with 10 mM Glycine-HCl pH 1.5. […] An additional dissociation phase at pH 5.8 was integrated immediately after the dissociation phase at pH 7.4. This dissociation rate in 5(+) buffer was determined by processing and fitting data using Scrubber 2.0 (BioLogic Software) curve fitting software. […]

Assay [9] addresses T1, human C1s. Put plainly: SPR (Biacore T200, 37C), Ab captured on protein A/G, serum C1s 50 and 200 nM; pH 5.8, 1.2 mM Ca. Here is the method: (§2) The binding affinity of all histidine-substituted variants at pH 7.4 and pH 5.8 were determined at 37 degrees C. using Biacore T200 instrument (GE Healthcare). Recombinant Protein A/G (Pierce) was immobilized onto all flow cells of a CM4 sensor chip using amine coupling kit (GE Healthcare). Antibodies and analytes were prepared in 7(+) buffer (20 mM ACES, 150 mM NaCl, 1.2 mM CaCl2, 0.05% Tween 20, 0.005% NaN3, pH 7.4) or 5(+) buffer (20 mM ACES, 150 mM NaCl, 1.2 mM CaCl2), 0.05% Tween 20, 0.005% NaN3, pH 5.8). Each antibody was captured onto the sensor surface by protein A/G. Antibody capture levels were aimed at 200 resonance unit (RU). […] Sensor surface was regenerated each cycle with 10 mM Glycine-HCl pH 1.5. […] An additional dissociation phase at pH 5.8 was integrated immediately after the dissociation phase at pH 7.4. This dissociation rate in 5(+) buffer was determined by processing and fitting data using Scrubber 2.0 (BioLogic Software) curve fitting software.

In assay [10] the target is T1, human C1s. Put plainly: SPR (Biacore T200, 37C), Ab captured on protein A/G, serum C1s 12.5 and 50 nM; pH 7.4, 1.2 mM Ca. The procedure: as §2
For assay [11], the target named is T1, human C1s. Put plainly: SPR; koff (5.8+ of 775+): extra dissociation phase at pH 5.8 (1.2 mM Ca) right after the pH 7.4 dissociation, Scrubber fit. The procedure:
as §2

Assay [12] has as its target T1, human C1s. Description: SPR (Biacore T200, 37C), Ab captured on protein A/G, serum C1s 200 and 800 nM; pH 5.8, 1.2 mM Ca; value marked 'Not Adopted due to low binding response at pH 5.8'. Here is the method: as §2

As a reminder, the koff is the first-order rate constant of dissociation. For orientation: kon means the rate constant with which the complex forms. As a reminder, the Kd is the concentration at which binding is half-saturated. Low values mean a tighter complex, high ones a looser complex.

B1: C1_IPN92H0288-SG4GK/IPN93L0211-SK1 (antibody, human IgG4 S228P, kappa)
heavy: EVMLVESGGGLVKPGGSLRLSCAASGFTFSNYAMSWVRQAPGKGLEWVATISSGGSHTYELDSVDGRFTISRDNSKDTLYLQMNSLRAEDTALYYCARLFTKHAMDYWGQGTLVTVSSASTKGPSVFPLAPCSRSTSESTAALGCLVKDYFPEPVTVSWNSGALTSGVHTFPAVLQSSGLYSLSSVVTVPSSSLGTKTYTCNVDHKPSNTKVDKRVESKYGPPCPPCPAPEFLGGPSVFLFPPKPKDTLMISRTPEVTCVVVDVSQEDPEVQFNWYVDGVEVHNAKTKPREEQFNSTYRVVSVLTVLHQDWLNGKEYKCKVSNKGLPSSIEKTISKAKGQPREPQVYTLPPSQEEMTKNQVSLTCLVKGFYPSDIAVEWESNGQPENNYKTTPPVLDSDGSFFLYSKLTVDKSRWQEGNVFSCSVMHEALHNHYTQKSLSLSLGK
light: QIVLTQSPATLSLSPGERATLSCTASSEVSESYLHWYQQKPGKAPKLWIYSTSNLASGVPSRFSGSGSGTDYTLTISSLQPEDFATYYCHQYYRLHPITFGQGTKLEIKRTVAAPSVFIFPPSDEQLKSGTASVVCLLNNFYPREAKVQWKVDNALQSGNSQESVTEQDSKDSTYSLSSTLTLSKADYEKHKVYACEVTHQGLSSPVTKSFNRGEC
notes: also called IPN92H0288/IPN93L0211
Take B1: the “KD 5(-)/7(+)” value in the assay with human C1s [1] stood at 6.23. The “KD 5(+)/7(+)” value in the assay with human C1s [2] was determined as 9.9. For the same molecule, the off-rate (koff) turned out to be 0.00504 s⁻¹ in the assay with human C1s [3], 0.0292 s⁻¹ with human C1s [4] and 0.00088 s⁻¹ in the assay with human C1s [7]. Moreover, the kon with human C1s [3] was 485000 M⁻¹ s⁻¹; with human C1s [5] it was 527000 M⁻¹ s⁻¹; with human C1s [6], 1.77e+06 M⁻¹ s⁻¹.

B2: IPN92H0038/IPN93L0024-SG136 (antibody, human IgG1, kappa, name in Kabat numbering)
heavy: EVMLVESGGGLVKPGGSLRLSCAASGFTFSNYAMSWVRQAPGKGLEWVATISSGGSHTYYLDSVKHRFTISRDNSKDTLYLQMNSLRAEDTALYYCARLFTGHAMDYWGQGTLVTVSSASTKGPSVFPLAPSSKSTSGGTAALGCLVKDYFPEPVTVSWNSGALTSGVHTFPAVLQSSGLYSLSSVVTVPSSSLGTQTYICNVNHKPSNTKVDKKVEPKSCDKTHTCPPCPAPELRRGPSVFLFPPKPKDTLMISRTPEVTCVVVDVSHEDPEVKFNWYVDGVEVHNAKTKPREEQYNSTYRVVSVLTVLHQDWLNGKEYKCKVSNKGLPSSIEKTISKAKGQPREPQVYTLPPSREEMTKNQVSLTCLVKGFYPSDIAVEWESNGQPENNYKTTPPVLDSDGSFFLYSKLTVDKSRWQQGNVFSCSVMHEALHNHYTQKSLSLSP
light: QIVLTQSPATLSLSPGERATLSCTASSSVSSSYLHWYQQKPGKAPKLWIYSTSNLASGVPSRFSGSGSGTDYTLTISSLQPEDFATYYCHQYYRLHPITFGQGTKLEIKRTVAAPSVFIFPPSDEQLKSGTASVVCLLNNFYPREAKVQWKVDNALQSGNSQESVTEQDSKDCTYSLSSTLTLSKADYEKHKVYACEVTHQGLSSPVTKSFNRGEC
notes: also called IPN92H0038/IPN93L0024 (lot PPU2045)
As for B2, in the assay with human C1s [8], the “KD (5.8+)/KD (7.4+)” value was 8.9. For the same molecule, the Kd is 10.7 nM with human C1s [9] and 1.2 nM in the assay with human C1s [10]. Besides, the results for the koff with human C1s [10] and in the assay with human C1s [11] were 0.000461 s⁻¹ and 0.00354 s⁻¹, respectively.

B3: IPN92H0286/IPN93L0205-SG136 (antibody, human IgG1, kappa, name in Kabat numbering)
heavy: EVMLVESGGGLVKPGGSLRLSCAASGFTFSNKAMSWVRQAPGKGLEWVATISSGGSHTYYLDSVKHRFTISRDNSKDTLYLQMNSLRAEDTALYYCARLFTGHAMDYWGQGTLVTVSSASTKGPSVFPLAPSSKSTSGGTAALGCLVKDYFPEPVTVSWNSGALTSGVHTFPAVLQSSGLYSLSSVVTVPSSSLGTQTYICNVNHKPSNTKVDKKVEPKSCDKTHTCPPCPAPELRRGPSVFLFPPKPKDTLMISRTPEVTCVVVDVSHEDPEVKFNWYVDGVEVHNAKTKPREEQYNSTYRVVSVLTVLHQDWLNGKEYKCKVSNKGLPSSIEKTISKAKGQPREPQVYTLPPSREEMTKNQVSLTCLVKGFYPSDIAVEWESNGQPENNYKTTPPVLDSDGSFFLYSKLTVDKSRWQQGNVFSCSVMHEALHNHYTQKSLSLSP
light: QIVLTQSPATLSLSPGERATLSCTASSSVSSSRLHWYQQKPGKAPKLWIYSTSNLASGVPSRFSGSGSGTDYTLTISSLQPEDFATYYCHQYHRHPPITFGQGTKLEIKRTVAAPSVFIFPPSDEQLKSGTASVVCLLNNFYPREAKVQWKVDNALQSGNSQESVTEQDSKDCTYSLSSTLTLSKADYEKHKVYACEVTHQGLSSPVTKSFNRGEC
notes: also called IPN92H0286/IPN93L0205 (lot PPU2048); IPN92H0286/IPN93L205-SG136
Consider B3, for which the Kd in the assay with human C1s [10] amounted to 1.43 nM; in the assay with human C1s [12], 8530 nM. The koff with human C1s [10] was found to be 0.000822 s⁻¹; with human C1s [11] it was 0.0134 s⁻¹; with human C1s [12], 0.0237 s⁻¹.

Source of the values: patent publication US20210032365A1 (Chugai, published 2021).
